Measurements: US12448423 (Xencor, dated 2025)
Positions count from the first letter of the chain named. Numbers in names are those of the source. Values belong to the binder of their own block, whether it stands above or below them.

What was measured:
HIS-tagged human NKG2D = biological target: T1, HIS-tagged human NKG2D (human, UniProt P26718 73-216, limits assumed); assay: Octet (BLI): His-tagged human NKG2D captured on HIS1K biosensors, dipped into 100 nM bivalent mAb
T1 construct: Captured on HIS1K biosensors; not shown: HIS tag
T1 sequence (looked up): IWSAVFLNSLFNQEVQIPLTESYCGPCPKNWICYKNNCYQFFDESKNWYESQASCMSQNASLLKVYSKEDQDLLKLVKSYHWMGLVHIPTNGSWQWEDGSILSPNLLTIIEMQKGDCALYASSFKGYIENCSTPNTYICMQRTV

[1] = biological target: T2, cynomolgus CD8 (captured on the Octet biosensor) (cynomolgus); assay: Octet (BLI); cynomolgus CD8 captured, dipped into multiple concentrations of the one-arm mAb
T2 construct: Construct not described; also called cyno CD8; cyno CD8a

Kd (HIS-tagged human NKG2D): 0.199 nM
koff (HIS-tagged human NKG2D): 0.000145 s⁻¹
kon (HIS-tagged human NKG2D): 727000 M⁻¹ s⁻¹
B1: XENP27610 (antibody, human IgG1, kappa, V domains shown)
VH: QVQLVQSGAEVKKPGASVKVSCKVSGFSLTIYGVHWVRQAPGQGLEWMGVIWSGGSTDYNAKFQGRVTMTKDNSKRTVYMELSSLRSEDTAVYYCSRKSHDGYYGVMDYWGQGTTVTVSS
VL: DIQLTQSPSSLSASVGDRVTITCRASQSIGTSIHWYQQKPGKSPKLLIKYASESISGIPSRFSGSGSGTDFTLTISSLQPEDFATYYCQQSNTWPLTFGAGTKVEIKR
notes: humanized bivalent anti-NKG2D mAb, IgG1 with ablation variants; also called mAb C[NKG2D]_H2L2_IgG1_PVA_/S267K

Kd [1]: 77.6 nM
koff [1]: 0.00909 s⁻¹
kon [1]: 117000 M⁻¹ s⁻¹
B2: XENP26009 (antibody, V domains shown)
VH: QVQLVQSGAEVKKPGASVKVSCKASGFNIKDTYIHWVRQAPGKGLEWMGRIDPDNGETLYASKFQGRVTITADTSINTAYMELSRLRSDDTAVYYCGRGYGYYVFDHWGQGTTVTVSS
VL: AIKMTQSPSSLSASVGDRVTITCRTSRSISKYLAWYQEKPGKTNKLLIYSGSTLQSGIPSRFSGSGSGTDFTLTISSLQPEDFATYYCQQHNENPLTFGAGTKLEIK
notes: also called OKT8_H2.152_L1.103 one-arm mAb

Kd [1]: 80.7 nM
koff [1]: 0.00962 s⁻¹
kon [1]: 119000 M⁻¹ s⁻¹
B3: XENP26019 (antibody, V domains shown)
VH: B2 VH
VL: B2 VL with K31I, S50K, H91A
notes: also called OKT8_H2.152_L1.113 one-arm mAb

Kd [1]: 39.2 nM
koff [1]: 0.00967 s⁻¹
kon [1]: 247000 M⁻¹ s⁻¹
B4: XENP26230 (antibody, V domains shown)
VH: B2 VH with I70M
VL: B2 VL
notes: also called OKT8_H2.153_L1.103 one-arm mAb

Kd [1]: 35.7 nM
koff [1]: 0.0114 s⁻¹
kon [1]: 319000 M⁻¹ s⁻¹
B5: XENP26232 (antibody, V domains shown)
VH: B2 VH with V104Y
VL: B2 VL
notes: also called OKT8_H2.155_L1.103 one-arm mAb

Kd (HIS-tagged human NKG2D): 0.679 nM
koff (HIS-tagged human NKG2D): 0.000746 s⁻¹
kon (HIS-tagged human NKG2D): 1.1e+06 M⁻¹ s⁻¹
B6: XENP27598 (antibody, human IgG1, kappa, V domains shown)
VH: QVQLVQSGAEVKKPGASVKVSCKASGYTFTSYWMNWVRQAPGQGLEWMGRIDPYDSETHYNQKFQGRVTMTVDKSTSTAYMELSSLRSEDTAVYYCAKMGDYSFDYWGQGTLVTVSS
VL: DIQLTQSPSSLSASVGDRVTITCRASGNIHNYLAWYQQKPGKSPKVLVYNAKTLADGVPSRFSGSGSGTDYTLTISSLQPEDFATYYCQHFWSTTWTFGGGTKVEIKR
notes: humanized bivalent anti-NKG2D mAb, IgG1 with ablation variants; also called mAb B[NKG2D]_H1L1_IgG1_PVA_/S267K

Kd (HIS-tagged human NKG2D): 0.894 nM
koff (HIS-tagged human NKG2D): 0.0011 s⁻¹
kon (HIS-tagged human NKG2D): 1.23e+06 M⁻¹ s⁻¹
B7: XENP27601 (antibody, human IgG1, kappa, V domains shown)
VH: EVQLVQSGAEVKKPGESLRISCKASGYTFTSYWMNWVRQMPGKGLEWMGRIDPYDSETHYNPSFQGHVTISVDKSISTAYLQWSSLKASDTAMYYCAKMGDYSFDYWGQGTLVTVSS
VL: B6 VL
notes: humanized bivalent anti-NKG2D mAb, IgG1 with ablation variants; also called mAb B[NKG2D]_H2L1_IgG1_PVA_/S267K

Kd (HIS-tagged human NKG2D): 1.01 nM
koff (HIS-tagged human NKG2D): 0.00194 s⁻¹
kon (HIS-tagged human NKG2D): 1.91e+06 M⁻¹ s⁻¹
B8: XENP27604 (antibody, human IgG1, kappa, V domains shown)
VH: EVQLVESGGGLVQPGGSLRLSCAASGYTFTSYWMNWVRQAPGKGLVWVSRIDPYDSETHYNQKVKGRFTISVDKAKSTAYLQMNSLRAEDTAVYYCAKMGDYSFDYWGQGTLVTVSS
VL: B6 VL
notes: humanized bivalent anti-NKG2D mAb, IgG1 with ablation variants; also called mAb B[NKG2D]_H3L1_IgG1_PVA_/S267K

Kd (HIS-tagged human NKG2D): 0.703 nM
koff (HIS-tagged human NKG2D): 0.00121 s⁻¹
kon (HIS-tagged human NKG2D): 1.73e+06 M⁻¹ s⁻¹
B9: XENP27603 (antibody, human IgG1, kappa, V domains shown)
VH: B7 VH
VL: DIQLTQSPDSLAVSLGERATINCKASGNIHNYLAWYQQKPGQSPKVLVYNAKTLADGVPSRFSGSGSGTDYTLTISSLQAEDVAVYYCQHFWSTTWTFGGGTKVEIKR
notes: humanized bivalent anti-NKG2D mAb, IgG1 with ablation variants; also called mAb B[NKG2D]_H2L2_IgG1_PVA_/S267K

Kd (HIS-tagged human NKG2D): 1.95 nM
koff (HIS-tagged human NKG2D): 0.00144 s⁻¹
kon (HIS-tagged human NKG2D): 740000 M⁻¹ s⁻¹
B10: XENP27602 (antibody, human IgG1, kappa, V domains shown)
VH: B7 VH
VL: B6 VL with T95P
notes: humanized bivalent anti-NKG2D mAb, IgG1 with ablation variants; also called mAb B[NKG2D]_H2_L1.1_IgG1_PVA_/S267K

Kd (HIS-tagged human NKG2D): 3.5 nM
koff (HIS-tagged human NKG2D): 0.00169 s⁻¹
kon (HIS-tagged human NKG2D): 482000 M⁻¹ s⁻¹
B11: XENP27599 (antibody, human IgG1, kappa, V domains shown)
VH: B6 VH
VL: B6 VL with T95P
notes: humanized bivalent anti-NKG2D mAb, IgG1 with ablation variants; also called mAb B[NKG2D]_H1_L1.1_IgG1_PVA_/S267K

Kd (HIS-tagged human NKG2D): 3.28 nM
koff (HIS-tagged human NKG2D): 0.00943 s⁻¹
kon (HIS-tagged human NKG2D): 2.88e+06 M⁻¹ s⁻¹
B12: XENP27605 (antibody, human IgG1, kappa, V domains shown)
VH: B8 VH
VL: B6 VL with T95P
notes: humanized bivalent anti-NKG2D mAb, IgG1 with ablation variants; also called mAb B[NKG2D]_H3_L1.1_IgG1_PVA_/S267K

Kd (HIS-tagged human NKG2D): 1.15 nM
koff (HIS-tagged human NKG2D): 0.00204 s⁻¹
kon (HIS-tagged human NKG2D): 1.77e+06 M⁻¹ s⁻¹
B13: XENP27606 (antibody, human IgG1, kappa, V domains shown)
VH: B8 VH
VL: B9 VL
notes: humanized bivalent anti-NKG2D mAb, IgG1 with ablation variants; also called mAb B[NKG2D]_H3L2_IgG1_PVA_/S267K

Kd (HIS-tagged human NKG2D): 0.595 nM
koff (HIS-tagged human NKG2D): 0.000666 s⁻¹
kon (HIS-tagged human NKG2D): 1.12e+06 M⁻¹ s⁻¹
B14: XENP27600 (antibody, human IgG1, kappa, V domains shown)
VH: B6 VH
VL: B9 VL
notes: humanized bivalent anti-NKG2D mAb, IgG1 with ablation variants; also called mAb B[NKG2D]_H1L2_IgG1_PVA_/S267K

Kd (HIS-tagged human NKG2D): ≤ 0.001 nM
koff (HIS-tagged human NKG2D): ≤ 1e-07 s⁻¹
kon (HIS-tagged human NKG2D): 224000 M⁻¹ s⁻¹
B15: XENP27612 (antibody, human IgG1, kappa, V domains shown)
VH: QVQLVQSGAEVKKPGASVKVSCKVSGFSLTSYGVHWIRQAPGQGLEWMGVIWAGGSTNYNSKFQGRVTMTKDNSKSTVYMELSSLRSEDTAVYYCARGGYEGAAWFGYWGQGTLVTVSS
VL: DIQLTQSPATLSLSPGERATLSCRASSSVSYMHWYQQKPGQSPRPLIYATSNLASGVPARFSGSGSGTDYTLTISSLEPEDFAVYYCQQWNSNPLTFGAGTKVEIKR
notes: humanized bivalent anti-NKG2D mAb, IgG1 with ablation variants; also called mAb A[NKG2D]_H1L2_IgG1_PVA_/S267K

Kd (HIS-tagged human NKG2D): ≤ 0.001 nM
koff (HIS-tagged human NKG2D): ≤ 1e-07 s⁻¹
kon (HIS-tagged human NKG2D): 228000 M⁻¹ s⁻¹
B16: XENP27611 (antibody, human IgG1, kappa, V domains shown)
VH: B15 VH
VL: DIQLTQSPSSLSASVGDRVTITCRASSSVSYMHWYQQKPGKSPKPLIYATSNLASGVPARFSGSGSGTDYTLTISSLQPEDFATYYCQQWNSNPLTFGAGTKVEIKR
notes: humanized bivalent anti-NKG2D mAb, IgG1 with ablation variants; also called mAb A[NKG2D]_H1L1_IgG1_PVA_/S267K

Kd (HIS-tagged human NKG2D): 0.506 nM
koff (HIS-tagged human NKG2D): 0.000357 s⁻¹
kon (HIS-tagged human NKG2D): 706000 M⁻¹ s⁻¹
B17: XENP27607 (antibody, human IgG1, kappa, V domains shown)
VH: EVQLVESGGGLVQPGGSLRLSCAVSGFSLTIYGVHWVRQAPGKGLEWVSVIWSGGSTDYNAKVKGRFTISKDNSKRTVYLQMNSLRAEDTAVYYCSRKSHDGYYGVMDYWGQGTTVTVSS
VL: DIQLTQSPDFQSVTPKEKVTITCRASQSIGTSIHWYQQKPDQSPKLLIKYASESISGIPSRFSGSGSGTDFTLTINSLEAEDAATYYCQQSNTWPLTFGAGTKVEIKR
notes: humanized bivalent anti-NKG2D mAb, IgG1 with ablation variants; also called mAb C[NKG2D]_H1L1_IgG1_PVA_/S267K

Kd (HIS-tagged human NKG2D): 0.167 nM
koff (HIS-tagged human NKG2D): 8.64e-05 s⁻¹
kon (HIS-tagged human NKG2D): 518000 M⁻¹ s⁻¹
B18: XENP27609 (antibody, human IgG1, kappa, V domains shown)
VH: B1 VH
VL: B17 VL
notes: humanized bivalent anti-NKG2D mAb, IgG1 with ablation variants; also called mAb C[NKG2D]_H2L1_IgG1_PVA_/S267K

Kd (HIS-tagged human NKG2D): 0.371 nM
koff (HIS-tagged human NKG2D): 0.000308 s⁻¹
kon (HIS-tagged human NKG2D): 832000 M⁻¹ s⁻¹
B19: XENP27608 (antibody, human IgG1, kappa, V domains shown)
VH: B17 VH
VL: B1 VL
notes: humanized bivalent anti-NKG2D mAb, IgG1 with ablation variants; also called mAb C[NKG2D]_H1L2_IgG1_PVA_/S267K
